Assay results published in the supplement of paper PMC9170038.

System: MS2 coat protein
Experiment: apparent KD of MS2 coat protein; designed switch direction (-1 OFF switch, 1 ON switch): 1; higher = weaker reporter binding
How it was run: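 Three titration conditions were used: no input, 200 uM small-molecule ligand, and an oligonucleotide input. In each, SNAP-549-labelled MS2 coat protein was raised from 0.7 or 1.5 nM, doubling, to 3 µM over designed RNA switches transcribed on Illumina chips by stalled E. coli RNA polymerase. Curve fits of normalised cluster fluorescence gave values whose per-design median over clusters is the apparent KD.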

[1] = input ligand: microRNA oligo, concentration not stated
[2] = Eterna round: R95, input ligand: FMN 200 uM
[3] = Eterna round: R95, input ligand: microRNA oligo, concentration not stated
[4] = Eterna round: R95, input ligand: none

Sequence: UUAUCUCAGACAUGAGGAUCACCCAUGUGGUUUUGACUUAGACAGGAUAUAGUAGUAUCGAAAUACUAGAAGGGUCAUUUUAUU [JR_SSNG3_Sub022] (Eterna round: R96, puzzle: Same State NG 3)
- apparent KD of MS2 coat protein (input ligand: FMN 200 uM): 91.3 nM
- apparent KD of MS2 coat protein [1]: 99.5 nM
- apparent KD of MS2 coat protein (input ligand: none): 125 nM

Sequence: AGGACGAGCACAGGAUAUCCGCGGAACAGCCGCGGAGAAGGGUGAAGUCAUGGAAAGAAAAGACAUGAGGAUCACCCAUGUAAA [Ageteerer] (Eterna round: R96, puzzle: Same State NG 1)
- apparent KD of MS2 coat protein (input ligand: FMN 200 uM): 223 nM
- apparent KD of MS2 coat protein [1]: 1320 nM
- apparent KD of MS2 coat protein (input ligand: none): 680 nM

Sequence: GCCAUCGUGUGAGGAUAUGGCACCGUUUCGGUGCCAGAAGGCAUGUCAAUUGACAUGAGGAUCACCCAUGUAUUAGCGAUGGCA [JL Fiskers NG1ss - 33 mod 3] (Eterna round: R96, puzzle: Same State NG 1)
- apparent KD of MS2 coat protein (input ligand: FMN 200 uM): 159 nM
- apparent KD of MS2 coat protein [1]: 292 nM
- apparent KD of MS2 coat protein (input ligand: none): 988 nM

Sequence: AGCUUGUAACAUGAGGAUCACCCAUGUACAAGCUUUUUGCUCGUUUUACCCGGGCCCGGCGAUUACACGGGCCCGGG [Optimized Design] (puzzle: Sensor for hsa-mir-208a version 2)
- apparent KD of MS2 coat protein [2]: 10.1 nM
- apparent KD of MS2 coat protein [3]: 9.89 nM
- apparent KD of MS2 coat protein [4]: 9.67 nM

Sequence: GAGGGACAUGAGGAUCACCCAUGUGGUAAAUUUAAAGGAUAUUAGUGUGGGAAAGUAGGGUAAGAAGGUUGAUUGG [JR_SS1_Sub086] (puzzle: Same State 1)
- apparent KD of MS2 coat protein [3]: 87.7 nM

Sequence: CUCAAACAUGAGGAUCACCCAUGUGUUGUCAUGGGAGGAUAUCCCAGUUCGUUGUAGUCGGGAGAAGGCCUAUGUC [× ×•×ª×• ×ž×“×™× ×” × ×—×ª-13] (puzzle: Same State 1)
- apparent KD of MS2 coat protein [3]: 54.9 nM

Sequence: CCGCUCCGUGGAGGAUAUGGGCCUGCCCGGGAUACCGGGCCUAACACAUGAGGAUCACCCAUGUCCCAGAAGGCCGCUGGAGCC [Rasoleis] (Eterna round: R96, puzzle: Same State NG 2)
- apparent KD of MS2 coat protein (input ligand: FMN 200 uM): 18.9 nM
- apparent KD of MS2 coat protein [1]: 85.1 nM
- apparent KD of MS2 coat protein (input ligand: none): 58.2 nM

Sequence: AGAAAACAUGAGGAUCACCCAUGUAUAGUGAAUACAGGAUAUCACCGACGGAAUAAUUGGUGAGAAGGGUGAUCGC [Ceaqu] (puzzle: Same State 1)
- apparent KD of MS2 coat protein [2]: 21.2 nM
- apparent KD of MS2 coat protein [3]: 11.8 nM
- apparent KD of MS2 coat protein [4]: 23.2 nM

Sequence: GUAGCAUACCGAGGAUAUUCAUAUACAUGAGGAUCACCCAUGUUUAUAUAGGCCAAAAGGCCUUGGGAGAAGGCGGAAUGCUAC [Xeonanis - 20 Mod10] (Eterna round: R96, puzzle: Same State NG 2)
- apparent KD of MS2 coat protein (input ligand: FMN 200 uM): 12.1 nM
- apparent KD of MS2 coat protein [1]: 7.88 nM
- apparent KD of MS2 coat protein (input ligand: none): 13 nM

Sequence: AACAAUCUAUCUGAGGAUAUCAUGUCAAAGACAUGAGGAUCACCCAUGUUGCAGGAAACUGCUCAUGAGAAGGCAGAUAGAUUGA [SS2: 1129] (Eterna round: R96, puzzle: Same State 2)
- apparent KD of MS2 coat protein (input ligand: FMN 200 uM): 41 nM
- apparent KD of MS2 coat protein [1]: 329 nM
- apparent KD of MS2 coat protein (input ligand: none): 385 nM

Sequence: UGAAUAGUUACAGGAUAUGAGCCGUAAAUUGGGUCAGAAGGGUGGGUGUUUUGCGCUGUGUGCUACAUGAGGAUCACCCAUGUU [SameState NG1 #33] (Eterna round: R96, puzzle: Same State NG 1)
- apparent KD of MS2 coat protein (input ligand: FMN 200 uM): 520 nM
- apparent KD of MS2 coat protein [1]: 172 nM
- apparent KD of MS2 coat protein (input ligand: none): 240 nM

Sequence: AUCAAAACAAGUUGCAGUGUUCGUCUUUCACAUGAGGAUCACCCAUGUAAUAGCCCAGCGGAAGCACUCGGGCCACC [Arzasola] (puzzle: Sensor for hsa-mir-208a)
- apparent KD of MS2 coat protein [2]: 26.8 nM
- apparent KD of MS2 coat protein [3]: 28.1 nM
- apparent KD of MS2 coat protein [4]: 31.2 nM

Sequence: AUAUAACAUGAGGAUCACCCAUGUCUCUAAAGUCGAGGAUAUGGGCAAAUAAUAUAAGAACCAGAAGGCGAAUUAU [SS1 Teenbexe 4] (puzzle: Same State 1)
- apparent KD of MS2 coat protein [2]: 143 nM
- apparent KD of MS2 coat protein [3]: 34.1 nM
- apparent KD of MS2 coat protein [4]: 79.3 nM

Sequence: UAUGACUUACAAGGAUAUUAAUGACAUGAGGAUCACCCAUGUGGCUGUGUAUGUUAGAUAAGCAUUAAGAAGGUGUGCGAGUCU [JR_SSNG2_Sub097] (Eterna round: R96, puzzle: Same State NG 2)
- apparent KD of MS2 coat protein (input ligand: FMN 200 uM): 30.7 nM
- apparent KD of MS2 coat protein [1]: 23.2 nM
- apparent KD of MS2 coat protein (input ligand: none): 25.4 nM

Sequence: AUUCGUUUGAUAGGAUAUCACCUUACAUGAGGAUCACCCAUGUUCACCACGCUGGUUUUUCAUACUGAGAAGGAUCUUGAUGAC [JR_SSNG2_Sub007] (Eterna round: R96, puzzle: Same State NG 2)
- apparent KD of MS2 coat protein (input ligand: FMN 200 uM): 50.5 nM
- apparent KD of MS2 coat protein [1]: 45.6 nM
- apparent KD of MS2 coat protein (input ligand: none): 51.4 nM

Sequence: UUAAUUUACUGAGGAUAUCGUGUCGUCUGAUUUGACAUGAGGAUCACCCAUGUGUGAAGUGGUAUCGAGAAGGCAGUUUUCUUA [JR_SSNG2_Sub027] (Eterna round: R96, puzzle: Same State NG 2)
- apparent KD of MS2 coat protein (input ligand: FMN 200 uM): 24.2 nM
- apparent KD of MS2 coat protein [1]: 42.6 nM
- apparent KD of MS2 coat protein (input ligand: none): 75.5 nM

Sequence: ACGCCCUCAGUAGGAUAUGGGAAAGGAAGUGUACCAGAAGGACUGGUUGAACAUGAGGAUCACCCAUGUUCAACGACAGGGCGA [PowerStrip SSNG 1.25] (Eterna round: R96, puzzle: Same State NG 1)
- apparent KD of MS2 coat protein (input ligand: FMN 200 uM): 18.9 nM
- apparent KD of MS2 coat protein [1]: 14 nM
- apparent KD of MS2 coat protein (input ligand: none): 22.8 nM

Sequence: AUAUACUGGGUAGGAUAUCUAGGAUAUGGGAAAGACUAAGUCUGUAGGUCACCUAACCCAGAUGGAGAGAAGGACCCAACACAC [pwkr ssNG2 2FMN + F9.42] (Eterna round: R96, puzzle: Same State NG 2)
- apparent KD of MS2 coat protein (input ligand: FMN 200 uM): 16.1 nM
- apparent KD of MS2 coat protein [1]: 5.2 nM
- apparent KD of MS2 coat protein (input ligand: none): 42.6 nM

Sequence: GUGUUACAUGAGGAUCACCCAUGUUGUUGUAGAUAAGGAUAUAUGGGAACGAGAGAAAUAAUAGAAGGUAUUAGGC [JR_SS1_Sub060] (puzzle: Same State 1)
- apparent KD of MS2 coat protein [3]: 77.4 nM

Sequence: UUGAAGAAUUAAGGAUAUCGAGUCGUCAGAUUUUACAUGAGGAUCACCCAUGUGGGUUGCGGUAUCGAGAAGGUAAAUUACAAG [JL JR Sub099 mod 6] (Eterna round: R96, puzzle: Same State NG 2)
- apparent KD of MS2 coat protein (input ligand: FMN 200 uM): 24.4 nM
- apparent KD of MS2 coat protein [1]: 34.1 nM
- apparent KD of MS2 coat protein (input ligand: none): 43.3 nM

Sequence: UUGAUUAGAAGUUAACAUGAGGAUCACCCAUGUAUUGGAUCAGAGGAUAUGCAUGUUUGAUAGUAGCAGAAGGCUGAUGGUGGA [JR_SSNG3_Sub026] (Eterna round: R96, puzzle: Same State NG 3)
- apparent KD of MS2 coat protein [1]: 39.8 nM

Sequence: UAUAUUAUGGUAGGAUAUGUAGGAUAUGGCGAGAGCUAAGCUUGGAAGUCACUUCAGCCAGAAGGACAGAAGGACCAUAAUAUU [pwkr ssNG2 2FMN + F9.9] (Eterna round: R96, puzzle: Same State NG 2)
- apparent KD of MS2 coat protein (input ligand: FMN 200 uM): 16.6 nM
- apparent KD of MS2 coat protein [1]: 127 nM
- apparent KD of MS2 coat protein (input ligand: none): 216 nM

Sequence: UAAUUAAAGCAAGGAUAUCACGUCGAUUAGACGUGAGAAGGUGCUCCUUACAUGAGGAUCACCCAUGUAUAACAUGAAUAAUUA [SSNG1/10-B2] (Eterna round: R96, puzzle: Same State NG 1)
- apparent KD of MS2 coat protein (input ligand: FMN 200 uM): 169 nM
- apparent KD of MS2 coat protein [1]: 522 nM
- apparent KD of MS2 coat protein (input ligand: none): 792 nM

Sequence: AAUUAAUUAAUUAAUAUACAUGAGGAUCACCCAUGUAAGAUCAAGGAUAUCAGCUCGAAUAGAGCUGAGAAGGUGAUCACAUGU [SSNG3/16-A1] (Eterna round: R96, puzzle: Same State NG 3)
- apparent KD of MS2 coat protein [1]: 251 nM

Sequence: CACAUGAGGAUCACCCAUGUGAGGCGGCAAUAAAGCCGCGCACAGGAUAUAGCGCUAUGAAUGCGCUAGAAGGGUGAUUAGAAC [Reines] (Eterna round: R96, puzzle: Same State NG 3)
- apparent KD of MS2 coat protein (input ligand: FMN 200 uM): 240 nM
- apparent KD of MS2 coat protein [1]: 59.9 nM
- apparent KD of MS2 coat protein (input ligand: none): 36.5 nM

Sequence: UCGGGCGUACUUGCUGACAUGAGGAUCACCCAUGUAAAUGGGAAGGAUAUGGUUCCGUUUCGGUUCCAGAAGGUCCUGGGUGCU [salish99_SSNG3_r04_311] (Eterna round: R96, puzzle: Same State NG 3)
- apparent KD of MS2 coat protein (input ligand: FMN 200 uM): 886 nM
- apparent KD of MS2 coat protein [1]: 1140 nM
- apparent KD of MS2 coat protein (input ligand: none): 1180 nM

Sequence: CCGCGCUGUCGAGAGGAUAUGCGGUGAUGGACAUGAGGAUCACCCAUGUUAGCGAUAGCAUUACUGUAGAAGGCUCUACGGCGGC [JL-ss2-3.09 ViennaUCT mod] (puzzle: Same State 2)
- apparent KD of MS2 coat protein [2]: 12.2 nM
- apparent KD of MS2 coat protein [3]: 10.4 nM
- apparent KD of MS2 coat protein [4]: 11.9 nM

Sequence: AAUUAAGAUCUAGGAUAUCACGUCGAAUAGACGUGAGAAGGAGAUCAUAACAUGAGGAUCACCCAUGUAUUACAUGAAUUAAUU [SSNG1/6-B1] (Eterna round: R96, puzzle: Same State NG 1)
- apparent KD of MS2 coat protein (input ligand: FMN 200 uM): 28 nM
- apparent KD of MS2 coat protein [1]: 21.6 nM
- apparent KD of MS2 coat protein (input ligand: none): 28.4 nM

Sequence: GGUCCAGCCUGAGCUGGACAAAAGCAUGUACAUGAGGAUCACCCAUGUUCAUGUACAAGCUUUUUGCUCGUCUUAUG [salish99_208a_r3_053] (puzzle: Sensor for hsa-mir-208a)
- apparent KD of MS2 coat protein [2]: 693 nM
- apparent KD of MS2 coat protein [3]: 18.1 nM
- apparent KD of MS2 coat protein [4]: 785 nM

Sequence: GGUGGGUUACUACCCACACAUGAGGAUCACCCAUGUAUUGGGAAGGAUAUGGUGCCUGUGUGGUACCAGAAGGUCCUGGAGGUG [SS-NG3-LRO20] (Eterna round: R96, puzzle: Same State NG 3)
- apparent KD of MS2 coat protein (input ligand: FMN 200 uM): 1350 nM
- apparent KD of MS2 coat protein [1]: 237 nM
- apparent KD of MS2 coat protein (input ligand: none): 1590 nM

Sequence: AGAUGUUAAUCAGGAUAUGGGCACAUGAGGAUCACCCAUGUAAAUUAGAUACUAUGUGGUCAAGUCUAGAAGGGAUGGCUAACA [SameState NG2 #81] (Eterna round: R96, puzzle: Same State NG 2)
- apparent KD of MS2 coat protein (input ligand: FMN 200 uM): 346 nM
- apparent KD of MS2 coat protein [1]: 145 nM
- apparent KD of MS2 coat protein (input ligand: none): 182 nM

Sequence: AGUAGGGCGUCAUAGGAUAUCCGGAAGAGUACAUGAGGAUCACCCAUGUCACUCCGCCAUGCAGAGGAGAAGGGUGGUGUUGUAC [Biedzage] (puzzle: Same State 2)
- apparent KD of MS2 coat protein [2]: 77.6 nM
- apparent KD of MS2 coat protein [3]: 36.6 nM
- apparent KD of MS2 coat protein [4]: 41 nM
